The nanobody polyreactivity screen of Harvey et al. (2022)

Experiment: yeast display, Sf9 membrane polyspecificity reagent, FACS + sequencing; frameworks hold sequencing errors
How it was run: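 Polyreactivity labels are assigned by the sorting gate from which each nanobody was recovered. The gates were low and high (top ~1%), set on anti-HA fluorescence for expression and streptavidin fluorescence for reagent binding. Before sorting, galactose-induced (36–48 hours) yeast display cells were stained for 1 hour at 4 °C with 10% biotinylated, detergent-solubilized Sf9 membrane reagent.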

Sequence | polyreactivity (PSR sort gate)
QVQLEESGGCLVQAGGSLRLSCAASGSTFSNYAMGWYRLAPGKESELVAAISYSGARTDYADSVKGRFTISRDNAKHTVYFQMHSLKPEDTAVYYCAAQVLSRHANPYAYYYWGQGTQVTVSS | high polyreactivity
QVQLQESGGGLVQASGSPRLSCAASGNIFDADIMGWYRQAPGKQCELVASITDGGSTNYADSEKGRFTISSDNAKNTVYLQMNSLKPEDTAVYYCAAIAYPDIPTYFDYDSDYFYWGQGTHVTVSS | high polyreactivity
QVQLVESGGGLVQAGGSLRLSCAASGIIFAANTMGWYRQAPGKDREFVAAISKRGGTTYYADSVKGRFTISRDNAKNTVYLQMNSLKPEDSAVYYCNRRNGWSRGEYWGQGTQVTVSS | high polyreactivity
QVQLVESGGGLLQAGGSLRLSCAASGRNFRYYAMGWYRQAPRKERELVAAITRGGRTNYADSVKGRFTISRDNAKNTVYLQMNSLKPEDSAVYYCAADYTKYYRRYYYWGQGTQVTVSS | high polyreactivity
QVQLVESGGGLVQAGGSLRLSCAASGRIFYRNAMGWYRQAPGQERELVAAISKSGGSTYYADSVKGRFTISRDNAKNTVYLQMNSLKPEDTAVYYSAAGTRRTDGYSWGQGTQVTVAS | high polyreactivity
QVQLVESGGGLVQAGGSLRLSCAASGFTFHRNAMGWYRQAPGKERELVAAITLNGGSSTYYADSVKGRFTISRDNAKNTVYLQMNSLKPEDTAVYYCARDSYSYTFSKNSDPAEYDYWGQGTQVTVSS | low polyreactivity
QVQLVESGGGLVQAGGSLRLSCAASGLIFPYYAMGWYRPAPGKERELVAAISRSGDSTYYADSVKGRFTISRDNAKNTVYLQMYSLKPEDTAVYYCAAVLSYSYVRYNYWGQGTQVNVSS | high polyreactivity
QVQLVESGGGLVQAGGSLRLSCAASGSIFGSYAMGWYRQAPGKERELVAVITSASTNYADSVKGRFTISRDNAKNTVYLQMNSLKPEDTAVYYCNAALSHDFWNYRLGYWGQGTQVTVSS | low polyreactivity
QVQHVESGGGLVQAGGRLRLSCAASGSIFYSNAIGWYRQAPGKEWELVATITWSGGRTYYADSVKGRFTISRDNAKNTVYLQMNSLKPEDTAVYYCAAVSIYWGQGTQVTVSS | low polyreactivity
QVQLVESGGGLVQAGGSLRLSCAASGSTFYWNALGWYRQAPGKERELVADIDGRGGSTYYADSVKGRFTISRDNAKNTVYLQMNSLKPEDTAVYYCAARAPFLSVPSELDYWGQGTQVTVSS | low polyreactivity
QVQLEESGGGLVQAGGSLRLSCAASGRTFYSYAMGWYRQAPGKEREWVAAITSDGGTYYADSVKGRFTISRDNAKNTVYLQMNSLKPEDTAVYYCAAELYYWYYYWGQGTQVTVSS | low polyreactivity
QVQLVESGGGLVQAGGSLRLSCAASRSIFYRYAMGWYRQEPGKERELVAAISRSGGTTYYADSVKGRFTISRDNAKNTVYLQMNSQKPEDTAVYYCAARVFHPYSTDPFYYWGQGTQVTVSS | high polyreactivity
QVQLVESGGGLVQAGGSLRLSCAASGRTFFWYAMGWYRQAPGKERELVAGISRGGRTNYADSVKGRFTISRDNAKNTVYLQMNSLKPEDTAVYYCAADSWLTYFLGTSEHYYWGQGTQVTVSS | high polyreactivity
QDQLVESGGGLVQAGGSLRLSCAASGRIFRYYTRGWYRQAPGKERELVAAIRWSGSTTYYADSVKGRFTISRDYAKNTVYLLMNSLKPEDTAVYYCDARWSYPRWEFDYWGQGTQVTVSS | high polyreactivity
QVQLVESGGGLVQAGGSLRLSCAASGSTFEFNDMGWYIQAPGKERELVASIRHSDGSTYYADSVKGRFTISRDNAKNTVYLQMNSLKPEDTAVYYCNKAFQWSGGQVSYDYWGQATQVTVSS | low polyreactivity
QVQLVESGGGLVQAGGRLRISCAASGRTFGHYAMGWYRQAPGKQRELVAAINRSGGITYYADSVRGRFTISRDNAKNTVYLQMNSLKPEDPAVDYCAAASPGRYDYWGQGTQETVSS | high polyreactivity
QVKLVESGGGLVQAGGSLRLSCAASGIIFYPNALGWYRQAPGKERELVAAITSDGSTYYADSVKGRFTISRDNAKNTVYLQMNSLKPEDTAVYYCGAWDDYGYDYWGQGTQVTVSS | low polyreactivity
QVQLVESGGGLVQAGGSLRLSCAASGSIFYENVMGWYRQAPGKERELVAGISRSGGRTYYADSVKGRFTISRDNAKNTVYLQMNSLIPEDTAVYYCNAARVYLSEWGQGTQVTVSS | high polyreactivity
QVQLVESGGGLVQAGGSLRLICAASGKTFSDYAMGWYRQAPGKERELVAAISSSGVRTYYADSVKGRFTISRDNAKNTVYLQMNSLKPEDTAVDDCNAGYVRRYYPASGYGYWGQGTHVTVSS | high polyreactivity
QVQLVESGGGLVHAGGSLRLSCPADGSTFVLNAIGWYRQAPGKERQLVAGISYGTGSTYYADSVKGRFTISRDHAKNTVYLQMNSLKPEDTAVYYCATDFDGYSIGMYYWGQGNQVTVSS | low polyreactivity
QVQLVESGGGLVQAGGSLRLSCAASGSTLSSNAMGWYRQAPGKERELVAAINRRGGTYYADSVKGRFTISRDNAKNTVYLQMNSLKPEDTAVYYCAAASPYHEYDYWGQGTQVTVSS | low polyreactivity
QVQLVESGGGLVQAGGSLRLSCAASGFIFRRYAMGWYRQAPGKERELVAAISWRSGSTYYADSVKGRFTISRDNAKNTVYLQMNSLKPEDTAVYYCAAKDQATYQLNYWGQGTQVTVSS | high polyreactivity

Sequence | polyreactivity (PSR sort gate)
QVQLVESGGGLVQAGGSLRLTCAASGITFGVYAMGGYRQAPGKERELVAAITRGGRTYYADSVKGRFTISRDNAKNTVYLQMNSLKPVDTAVYYCAAGFWWSSYGYWGQGTQVTVSS | high polyreactivity
QVQLVDSGGCLVQAGRSLRLSCAASGSIYVPNAMGWYRQAPRKERDLVAGISRGGSTNYADSVKGRFTISRDNAKNSVYLQMKRLKPEDTAVYYCARDSRTIRYYAWFYPFRYDYWGQGTQVTVSS | low polyreactivity
QVQLVESGGGLVQAGGSLRLSCAASGLIFRNYAMGWYRQAPGKERELVAAISSGGDNTYYADSVKGRFTISRDNAKNTVYLQMNSLKPEDTAVYYCAAGRYVGPSYYAYGYWGQGTQVTVSS | high polyreactivity
QVQLVESGGGLVQAGGSLRLSCAASGTFFIYAMGWYRQAPGKERELVATISTGGSTNYADSVKGRFTISRDNAKNTVYLQMNSLKPEDTAVYYFAAEWLYPHDGGYPRPMDYWGQGTQVTVSS | low polyreactivity
QVQLVESGGGLVQAGGSLRLSCAASGIIFYGYAMGWYRQAPGKERELVAAISRSGGSTYYADSVKGRFTISRDNAKNTVYLQMNSLKPEDTAVYYCAAVAYPGKGNRGNYDYWGQGTQVTVSS | high polyreactivity
QVQLVESGGGLVQAGGSLRLSCAASGFTFNTNAMGWYRQAPGKETELVAAITWTGGRTYYADSVKGRFTISRDNAKNTVHLQMNSLKPEDTAVYYCAAESFGYSIDITDHEYWGQGTQVTVSS | high polyreactivity
QVQLVESGGGLVQAGGSLRLSCAASGSTFAQYAMGWYRQAPGKERELVAAISRGGGSTYYADSVKGRFTISRDNAKNTVYLQMNSLKPEDTAVYYCNARTSHYDKYGYWGQGTQVTVSS | high polyreactivity
QVQLVESGGGLVQAGGSLRLSCAASGSTFWVYTMGWYRQAPGKEREFVAAISSGVGSTHYADSVKGRFTLSRDNAKNTVYLNMNSLKPEDTAVYYCAAESYYVYLGWLEYWGQGTQVTVSS | high polyreactivity
QVQLVESGGGIVQAGGSLRLSCAASGFTFKYYARGWYRQAPGKERELVAAIRGSGAGTYYADSVKGRFTISRDNAKNTGYLQMNSLKPEDTAVYYCNKRWTYKWDDYWGQGTQVTVSS | high polyreactivity
QVQLVESGGGLVQAGGSLRLSCAASGSTFYLYTMGWYRLAPGKERELVAAISVSGGSTFYADSVKGRFSISRDNAKNTVYLQKNSLKPEDTAVYYSAADGYLHAGHWRTYGYYYWGQGTQVTVSS | low polyreactivity
QVQLVESGGGLVQAGGSLRLSCAASGRTFRYYAMGWYRQAPGKERELVAAITRGGRTNYADSVKGRFTISRDNAKNTVYLQMNSLKPEDTAVYYCAAVLYTPNKYASYYWGQGTQVTVSS | high polyreactivity
QLQLVESGGGLVQAGGSLRLSCAASGRIFTGNAMGWYRQAPGKERELVAAISYSGGSTYYADSVKGRFTISRDNAKNTVYLQMNSLKPEDTAVYYCAAAGRYLRYGYWGQGTQVTVSS | high polyreactivity
QVQLVESGGGLVQAGGSLRLSCAASGSTFRYYAMGWYRQAPGKERELVASITWSGGSTYYADSVKGRFTISRDNAKNTVYLQMNSLKPEDTAVYYCAARQYIGSPPHRRRFDYWGQGTQVTVSS | high polyreactivity
QVQLVESGGGLVQAGGSLRLSCATSGSTFNDYDMGWYRQAPGKERELVAAISSSVSTYYADSVKGRFTISRDNAKNTVYLQMNSLKQEDTAVYYCAADYTGVCRYDYWGQGTLVTVSS | low polyreactivity
QVQLVESGGGLVQAGGSLRLSCAASGLIFTYYAMGWYRPAPGKERELVASINYSGGSTYYADSVKGRFTISRDNAKNSVYLHMNSLKPEDTAVYYCAARRVTQTEGPMGYWGQGTQVTVSS | low polyreactivity
QVQHVESGGGLVQAGGSLRLSCAASGRTFVYYVMGWYRQAPGKESELVAAITGSGDSTYYADSVKGRFTISRDNAKNNVYLQMNSLKPEDTAVYYCAARRGTRYYDFGYYYWGQGTKVTVSS | high polyreactivity
QVQLVESGGGLVQAGGSLRLSCAASGFTFYNNAMGGYRQAPGKERELVAVITSNGGRTYYADSVKGRFTISRDNAKNTVYLQMNSLKPEDTAVYYCAKRGYGYGDGAYYYWGQGTQVTVSS | low polyreactivity
QVQLVESGGGLVQAGGSLRLTCAASGRTFDYNAMGWYIQAPGKERELVAAISQSGGRTYYADSVKGRFTISRDHAKNTVYLQMNSLKPEDTAVYYCAAEAYGNRDYWGQGTQVTVSS | low polyreactivity
QVHLVESGGGLVQAGGSLRLSCAASGSTFRRYARAWYRQAPGKERELVAAITWRGGSTYYADSVKGRFTISRDNAKNTVYLQMNSLKPEDNAVYYCAADRYPYQYNYWGQGTLVTVSS | high polyreactivity
QVQLEESGGGLVQAGGSLRLSCAASGFIFAQNAMGWYRQAPGKERELVARIRVSGTRTYYADSVKGRFTISRDNAKNTVYLQMNSLKQEDTAVYYCAAVPYTYDFGYKRFYWGQGTQVTVSS | high polyreactivity
QVQLVESGGGLVQAGGSLRLSCAASGRLFYYNAMGWYRQAPGKERELVAAISWSGGSTYYADSVKGRFTISRDNAKNTVYLQMNSLKPEDTAVYYCAVDVYGYTPRPTREPLIYEYWGQGTQVTVSS | low polyreactivity
